Results reported in the DeepSol protein solubility set.

Assay: soluble on expression in E. coli; label from the status in PepcDB or PDB records

| Sequence | soluble on expression in E. coli |
| --- | --- |
| MSLEDVIEQLRELNEPVPVPLELPDEDLLVEIEEQLLINLPFELREFLMKVSDVIYGSLEPVTVSDPQSHTYLPEVAAVAWDQGMPRDMVPLCQVGDDYYAVDIEGQVLLWSSDSGELSDESWDSVWHWAKDVWLASEGHHHHHH | not soluble |
| MSLEDYTRIVADRMEGQSQVQVRAEGNVVVERNRTTLNADWADYDQSGDTVTAGDRFALQQDGTLIRGETLTYNLEQQTGEAHNVRMETEHGGRRLQSVSRTAEMLGEGHYKLTETQFNTCSAGDAGWYVKAASVEADREKGIGVAKHAAFVFGGVPIFYTPWADFPLDGNRKSGLLVPSLSAGSDGVSLSVPYYFNLAPNLDATFAPGVIGERGAVFDGQVRYLRPDYAGQSDLTWLPHDKKSGRNNRYQAKWQHRHDISDTLQAGVDFNQVSDSGYYRDFYGNKEIAGNVNLNRRVWLDYGGRAAGGSLNAGLSVLKYQTLANQSGYKDKPYALMPRLSADWRKNTGRAQIGVSAQFTRFSHDSRQDGSRLVVYPDIKWDFSNSWGYVRPKLGLHATYYSLNRFGSQEARRVSRTLPIVNIDSGMTFERNTRMFGGGVLQTLEPRLFYNYIPAKSQNDLPNFDSSESSFGYGQLFRENLYYGNDRINTANSLSAAVQSRILDGATGEERFRAGIGQKFYFKNDAVMLDGSVGKKPRSRSDWVAFASSGIGSRFILDSSIHYNQNDKRAENYAVGASYRPAQGKVLNARYKYGRNEKIYLKSDGSYFYDKLSQLDLSAQWPLTRNLSAVVRYNYGFEAKKPIEVLAGAEYKSSCGCWGAGVYAQRYVTGENTYKNAVFFSLQLKDLSSVGRNPADRMDVAVPGYIPAHSLSAGREGHHHHHH | not soluble |
| MSLEEQLAQNDQPSEKLVRLYGAWAEGGAGVLVTGNVMVAESGKGSINDVLISDDRALEMLKKWAKARTQNDTLLIMQINHAGKQSPAVVNKTPLAPSAVPLVGMNGFINPPRELSADEINGLIQQFVQTAKIAEQAGFSGVQIYAVHGYLISQFLSPHHNRRQDQWGGSLENRMRFLLETYTAIRAAAGKDFLVGVKLNSADFQKGGFDESESVQVVQKLSEMGIDFIEVSGGNYESPQMLAAKDSTRKREAFFIDYAEKARAASQAPLIITGGFRSQTAMEDALSSGHLDLVGIARPFALVPDLANKMQNRTYQTVQADRIQTGVAFVDKKAGAMLEMNWYMTQMDLIGQGKQSNPKIVGVESIAENFAGKEGHHHHHH | not soluble |
| MSLEEYNLIKPSHCKCQIVELEDIYRRDLNLLVALRVLIEESSVSKAATRLNLSQSAMSRVLGRLRDLLGDPLFTRQGQHLIPTQKALEIDRSLGEPLESLRQLLSPVEFDPQQCDQTFTIATTDYAMQTILPFALPRIYQEAPNVSFNFLPLQHDRLSDQLTYEGADLAICRPTGPVEPLRSEILGRVGVLCLLSKQHPLANQEMSLDDYLSHPHAMIAISDGVKALIEQALIDKPQRKMVLRAYHLEAALAIVDTLPIIITVPADLAYLVAERYDLVVKPLPFQFTPFDYSMIWHARCEHSPAQEWLRSVVREECSRLIAKRIEDMGLNEGHHHHHH | soluble |
| MSLEFALKAVTEHGPFTDIGKFDQDRWQLFHTDEDRSEAHDLADQHPEKVGEMAALWMSEAKKYHVLPLSDLGVMGILKMEFKPPVPPSRQYAYYPGTSTVPEHSAANTHGVSFKVLADVEFTADSQGILFAHGSRFGGHALYVKNGKLIYVYNFLGIPPEQRLVGDAPRSGKHVVGVEFIKERMGEYKESYGPARLYVDERIVAEAPIRTMTGHFAITGEGLCIGYDSGDGVSNDYRPKFAFSGGKINKVVFDVGADLYVDVETHLVAAMARDEGHHHHHH | soluble |
| MSLEFAMWAYPWDLLDEGPSEVERRLRDIGIDELNLATNYHTVQAFTPHSPERRTLFARASSYFEPGPEYGDLEPVPYEGMNGDWVADAATGLSDLTLNSWTVGCHNSRLGMANPEYTLESAHGDDLVFGLCPSQPAVQTYLSALVSDLSSRDEFARIELETFDYFYGTGFGWHHQKIHARLGVLGEFLLGLCFCPHCRKNAKAAGVDAERVRSTVADTIDDIVAGDVSHEHPPEEWLADHSTVAAYVDVRERTLASLYATLADAAGTTSLGYYVGAPEPGREWVVGADLQALSNHVDYYCLPAYESSSDAVIGAYNAVETVIDDVPLHIGLLPGHPAIDDEATVVDIVETLDSKGVPRLSFYNYGLLPEQSLEWVETAIETVSEGHHHHHH | soluble |
| MSLEFSDAELARASALQKRLVTLDSHLDTPANLERGDFDVMQGHAGNRLSQVDYPRMLEGALDGGFWAVYTGQGNRSAAAHLDDRDAGLQRLMKIHNLLAAQPQRFALATTPADAARIKAAGKRVVYISMENASPLVADPSLLRFYYAQGLRLMSTVHFLNNEFADSATDPKGAEWKGLSPAGKQLVQQALGIVIDQSHASDAVFDQLIALSPVPIVLSHSGARAVYNHPRNIDDARLKVLAAHGGVIQVNSYGGYLIDSGASPERKAAEKALADQYGGWEHLKMSDGTALSEALKALDARYPVKRATEEDFFAHLEHVLAVAGPAHVGIGMDWDGGGGVVGLEDVSDLPRITAWLLRKGYSEPQIAGIWGGNLLRVMEQAQAYAAGNRESGVGNREGHHHHHH | not soluble |
| MSLEIERYIVPKETWPEIIIPVEVQEYIGERKELNLAEELLDRNIREGRGRKVAVYFEDRRVTYRDLYRLSNKIANFLVGIGVQPYDRVGFRTRNMPEAIAVNFGIMKAGAIPVPLNPMWAGKEVSFVSNNAEIKALFVSGDERVFPAVNEVKDEIKTAKAMVVMDGEKEGFIPFSEVTAESAKFDPILLKIGTPALILYTSGTTGLPKGCVHFVENVISSVYLVGKHVWKLTPDDVVGGPAPVSFAMGYGNGCLIPYFHGAAASIWPRFSVENFFKYVEEHGITVFSSLPTSYRMILADPKLEEYMNKYDISSLRLFTGGGEALGAETAKRWKEVFGMDIYESLGATEMLHICIANACAPKPVAGSIGFPVPGYIAKIVDPETGKECGADEVGSLYIKGPTGIRYWNHPSRDLSEKQAKSVKNGWNVLGDFVRKDENGYIYFVSRDDDLIKSSGYRIGPDEIEQPLNTHPAVAECAVIGVPDPEGIRGQVVKAIIRLKEGYTPDEKLKEDILAFLEKHIAKYKLPRIIEFTDKPLPRTPTGKLLRRLLKQSEGHHHHHH | not soluble |
| MSLEIRRADKDDLDDFVRVYVESYRGLEDYAYTRKRDVKNYFKWLLSRDKDGVMVAEIDGEAVGFVACDTNWFSIFERKKVGEIHELFVLPEFRGEGIGAKLMEKALEYALERNRKVAELWVGRTNYRARRFYASQDLRRPESGGSGSEEGHHHHHH | not soluble |
| MSLEKQFFHPDRVKYDKDCFTIEGKDIFILSAAFHYFRCPQELWRDRFRKIKEAGFNTVETYVPWNWHERNMPKSVDDYSQCNFDDLKAWLHMAHEEFGLYTIVRPGPFICAEWAGGAYPRWLAKFCPDSYDTSFWLRSNHPEHMKWSEHWYNAVCRVFSEEQLTRKQPGEKGIIMVQLENEYIYFDMESEKKEEFLRVLSDACIRNGIDVPLFTCVTPEVRGSHDPVISQLFDMDNQYVWWNMHEAKSRIEKLKAEQPNAPAFVCELQGGWFSTVGGRLSEDSYLDGRHARGMALMAMAGGSTGLNYYMFFGGTHFAGWGARRMTTTYDYGAPLKENGGVGEKYAAVKGIGEVVDKFGGLLVRSRPVRFDVQGADNLTIGIRRAADGTLFVFLLNRDKKQAFRQLVNLTVEGKPMRIDCQLAALDSKLLVVHAGTDTVEWYPREQTLPEREGHHHHHH | soluble |
| MSLEKQKGLAIITGASQGIGAVIAAGLATDGYRVVLIARSKQNLEKVHDEIMRSNKHVQEPIVLPLDITDCTKADTEIKDIHQKYGAVDILVNAAAMFMDGSLSEPVDNFRKIMEINVIAQYGILKTVTEIMKVQKNGYIFNVASRAAKYGFADGGIYGSTKFALLGLAESLYRELAPLGIRVTTLCPGWVNTDMAKKAGTPFKDEEMIQPDDLLNTIRCLLNLSENVCIKDIVFEMKKSIIEGHHHHHH | soluble |
| MSLELKPKRFLVLDDQLVLRKLISRQASFFTRFAVEIDEFSDPAEALRSIAEGGYHLVITDIGMPGMNGIDFIKNVARLGYQSALLIISGYDGKTLQTIADMSVNLGLSCTRFLSKPYSAEAFVAALNGIFSEMERSEAPAVGDVAQLLADLGGETFRMQFAPVRSLHGRRLAGFTLRTLQLPDGRRLAFDRLLALLAGRRMASAALLEIVVERTARLLQDMRLSAGIDDCRVNIRIDEACLSADNVFDRCFMALQQSEVSPACLGFALADGLNRRSDALCFENIAKVKYLGFRLLADGFGQGSLTVSNLFRLPFDQVNAPLEALQWMKILQGEDPGAFRLLRSFGLGQAPVCATGLDDEESLALAQALGCGLGEGDAVSLAVPEEELLQEMAAVPEGEGHHHHHH | soluble |
| MSLEMKTYIIEKLRETEAIYYIEILLAVESGSRAWGFASPDSDYDIRFIYRHSKDWYLTPWDKDETITFMTEDDLDGSGWDLNKTFHLLLKSNAALLSWFYSPIVYIENKSFTKLFKPLVDQCFSPIAVSFHYLSMSKKYLESCRNDEVKLKSYFYCLRTALSGKWITEKKTVPPVLFSDLLVLADSTIRTKIENLIALKATKGESYFHPNDWELFEFMERQISENEEKAKSLSGSKTDKAQMEKVFREIISEGHHHHHH | not soluble |
| MSLENGYTPKLMYERLSKRLGSLFTFFSEPAFENLLPPPPPEQYRRPLTLVVTLDDFLIHSNWDTQHGWRTGKRPGLDYFLGYLSQYYEIVVFSSNLQMYSDKTVNKLDPYHAYISYALFREACRYKDGKLIKDLSLLNRDLGKTVMIDVDEDSAALQPENSIIVKKWEGQPDEYLISLIPFLEYLATQPVKDVRPILNSYKDKSNEGHHHHHH | soluble |
| MSLENISETLRTLMNRKNLNHRYEALMTAVYQDPDVRQFLAAHQNELSSDALERSAAKLYEFCEEKRKIARHEPTQAPGYQPTLVMSNHLIDIAYQPTPQMQEQQAAHALQQRVRSISMPKNIQTADLKTYDQDGDRATALMAALDFIDAYTQAPKRFHRGLYLYGSFGVGKTYLLGGMANALAAKGFNTTLIHFPSFAVEMKRSISNNTSADKVDAIKRAPILMIDDIGADASSTWIRDDVLGVILEYRMQEELPTCFSSNFSMQELQDGYLTLSQKGDEEPVKAQRIMQRVRYLASEIEMVGRNRRLNPDAEGHHHHHH | soluble |
| MSLENKHVTIYDIAERLNLATSTISRALKDHHTISDKTIKKVKKTAEEMGFVPNTLAAGLRGNKTRTIGVLIPTVTQPFLSSLISGIEITAQKSDYTVIIMQSHDSYEEEVNMAKSLYSNRVSGVICSLAMETRDTAHFHQFSNNNIPLVFVDRVPKDYNTFRVVIDNYTAGYKATKHLIEQGCIRIAHLTAGSELGNLYNERKRGYIEALKDHNIEVEEELIINLNSVTYEDGVKASNALFDLKPIPDGLFAPGDILAVSAVQTAKKRGTKVPEEFKVIGFNNDPISQIIDPNLSTITHPAEKMGKAAAEIIIKNLKSSKNDDAKEITFLNTEVLARESSSKEGHHHHHH | soluble |
| MSLENNNEIFKEKSRENFNKTADIYDESHDGKFVAPMYDEIIKRILRANPKTVLDVGCGTGNVLKILAKDENLSLYGLDLSEKMIEIAKKNLKGRAELKLGDSENMPWKSNSFDVIVCNASFHHYPNPKKVLIEMKRILKKDGTLIIGDPTAPVIYRQILNLYCKISNKGDYKLYSKKEIENIMKECGFEPFNFIHINHGSFAVNAKIREGHHHHHH | soluble |
